Reference: the nanobody polyreactivity screen of Harvey et al. (2022)

Assay: yeast display, Sf9 membrane polyspecificity reagent, FACS + sequencing; frameworks hold sequencing errors
Summary of the method: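 Nanobodies came from a synthetic yeast display library in Saccharomyces cerevisiae BJ5465, induced with galactose for 36–48 hours and stained for 1 hour at 4 °C with 10% biotinylated, detergent-solubilized Sf9 membrane reagent. Cells were enriched on streptavidin microbeads and then FACS-sorted, with low and high (top ~1%) gates set on anti-HA fluorescence for expression and streptavidin fluorescence for reagent binding. Each polyreactivity label reflects the gate a clone came from. Genes were amplified by colony PCR, sequenced by MiSeq 2 × 250 and filtered by CDR length.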

Row | Sequence | polyreactivity (PSR sort gate)
1 | QVQLVESGGGLVQAGGSLRLSCAASGLTFYYNAMGSYRQAPGKERELVAAISRSAGSTYYADSVKGRFTISRDNAKNTVYLQMHSLKPEDTAVYYCAVGYVYTRKGRVQPVKYDYWGQGTQVTVSS | high polyreactivity
2 | QVQLQESDGGLVQAGGSLRLSCAASGSISPQYYMGWYRQAPGKEREYVAISKGTTTYSADSVKGRLTISRVNAKNTVYLQMNSLKPEDTAVYCCAAGRWLQKVHAYWDQGTQVTVSS | low polyreactivity
3 | QVQLVESGGGLVQAGGSLRLSCAASGITFANYAMGWYRQAPGKERELVAAISWSDTSTYADSVKGRFTISRDNAKNTVYLQMNSLKPEDTAVYYCAADYHTPSSFAPIELYDYWGQGTQVTVSS | low polyreactivity
4 | QVQLLESGGGLVQAGGSLRLSCASSGRTFLTNAMGWYRQAPGKERELVAVITDGDTTYADSVKGRFTISRDNAKNTVYLLMNSLKPEDSAVYYCAADENYWSAGYDSWGLGTQVTVSS | low polyreactivity
5 | QVQLVESGGGLVQAGGSLRLSCAASGNIFVVNAMGWYRQAPGIERELVAAITVSGGSTYYADSVKGRFTISRDNAKNTVYLQMNRLKPEDTAVYYCNAYYWHDNWDIELGKFDYWGQGTQVTVSS | low polyreactivity
6 | QVQLVESGGGLVQAGGSLRLICAASGSTFKYNAMGWYRQAPGKERELVAAITYSGSSTYYADSVKGRFTISRDNAKNTVYLQMNSLKPEDTAVYYCAAGDLAKYRSYSYYYWGQGTQVTLSS | high polyreactivity
7 | QVQLVESGGGLVQAGGSLRLSCAASGSIFVKNAMGWYRPAPGKEREFVAAITTSGGSTNYADSVKGRFTISRDNAKNTVYLQMTSLKPEDTAVYYCNTDIFPAAYDYWVQGTQVTVSS | low polyreactivity
8 | QVQLVESGGGLVQAGGSLRLSCAASGSIFYDYAMGWYRQAPGKERELVAAISSSGSSTYYADSVKGRFTISRDNAKNTVYLQMNSLKPEDTAVYYCAAYSRRQWKYDYWGQGTQVTVSS | high polyreactivity
9 | QVQLVESGGGLVQAGGSLRLSCAASGFIFRKYAMGWYRHAPGKETELVAAITRNGGRTYYADSVKGRFTISRDNAKYTVYLQMNSLKPEDTAVFYCNRRGQYTFWPIHEYWGQGTQVTVSS | high polyreactivity
10 | QVQHVESGGGLVQAGGSLRLSCAASGRTFDYYAMGWYRQAPGKERELVASIRSSGRTTYADSVKGRFTISRDNAKNTDYLQMNSRKPEDTAVYYCAAQWPGWWGYDYWGQGTQVTVSS | low polyreactivity
11 | QVQLVESGGGLVQAGGSLSLSCAASGRIFVRNTMGWYRQAPGKERELVATISRRGGITYYADSVKGRFTISRDNAKNTVYLQMNSLKPEDTAVYYCAAESYSFWLYDYCGQGTQVTVSS | high polyreactivity
12 | QDQHVESGGGLVQAGGSLRLSCAASGRISKRNVMGWYRPAPGKERELVACISSTGSTSYADSVKGRFTISRDNAKYTVYLQMNSLNPEDTAVYYCAARGQATYNWGQGTQVTVSS | high polyreactivity
13 | QVQLVESWGGLVQAGGSLRLSCAASGYIFDRYAMGWYRQAPGKERELVAAISGRGGSTYYADSVKGRFTISRDNAKNTVYLQMNSLKPEDTAVYYCARDVYVRNGQRARYDSWGQGTQVTVSS | high polyreactivity
14 | QVQLVESGGGLVQAGGSLRLSCAASGITFGLYVMGWYRQAPRKERELVAANSSGGSTNYADSVKGRFTISRDNAKNPVYLQMNSLKPEDTAVYYCNADRLRPEYDYWGQGTQVTVSS | low polyreactivity
15 | QVQLVESGGGLVQAGGSLRLSCAASGRTFVYNAMGWYRQAAGKEWELVAAISSDGASTYYADSVKGRFTISRDNAKNTAYLQMNSLKPEDTAVYYCAADFSYYSYEHYYWGQGTQVTVSS | low polyreactivity
16 | QVQLVESGGGLVQAGGSLRLSCAASGRTFEYYAMGWYRQAPGKERELVAAIDSGGSTNYADSVKGRFTISRDNAKNTVYLQMNSLKPEDTAVYYCATEVDQNYNYDYWGQGTQVTVSS | low polyreactivity
17 | QVQLVESGGGLVQAGGTLRLSCAACGFTFSSYAMGWYRQAPGKERELVAAITYRGGSTYYADSVKGRFTISRDNAMNNVYLQMNSLKPEDTAVYYCAARWGYRMYWGQGTQVTVSS | high polyreactivity
18 | QVQLVESGGRLFQAGGSLRLSCAASGRNFCRYVMGWYRQAPGKERELVATISSGGSTNYADSVKGRFTISRDNAKNTVYLQMNSMKTEVTAVYYSAAYIYDGFWVYPYYPYDYWGQGTQVTVSS | low polyreactivity
19 | QVQLVESGGGLVQAGGSLRLSCAASGRTFWYYAMGWYRQSPGKERELVAVITSGSSTYYADSVKGRFTISRDNAKNTVYLQMNSLKPEDTAVYYCAVGRTYRRYSAASYNYWGQGTQVTVSS | high polyreactivity
20 | QVQLVESGGGLVQAGGSLRLSCAASGFIFRYYAMGWYRQAPGKERELVAAISGSGGGTYYADSVKGRFTISRDNAKNTVYLQMNSLKPEDTAVYYCAAGSTSGYFRYYYWGQGTQVTVSS | high polyreactivity
21 | QVQLVESGGGLVQAGGSLRLICAASGLTFYYYAMGWYRQAPGKERELVAASSTRGTSTYYADSVKGRFTISRDNSKNTVYLQMNSLKPEDTAVYYCAADSYPCGTGGDYWGQGTQVTVSS | high polyreactivity
22 | QVQLVESGGGLVQAGGSLRLSCASSGRTFPAYAMGWYRPAPGKERELVAAISSSGSRTYYAASVKGRFTISRDNAKNTVYLQMNRLIPEDTAVYYCAARGGRRQKVNRDDYWGQVTQVTVSS | high polyreactivity

Row | Sequence | polyreactivity (PSR sort gate)
23 | QVQLVESGGGLVQAGGSLRLSCAASGIIFIGYTMGWYRQAPGKERELVAAISRIGGSTYYADSVKGRFTISRDNAKNTVYLQMNSLKPEDTAVYYCAAQYYGSSYRRGYYWGQGTQVTVSS | high polyreactivity
24 | QDQLVESGGGLVQAGGSLRLSCAASGSTFSKNTMGWYRQAPGKERELVAAITTRGSSTYYADSVKGRFTISRDNAKNTVYLQMNSLKPEDTAVYYCNAPYRVTGGRYRWYDYWGQGTQVTVSS | high polyreactivity
25 | QVQLVESGGGLVQAGGSLRLSCAASGRTFSPYAMGWYRQAPGKERELVAAITSRGASTYYADSVKGRFTISRDNAKNTVYLQMNSLKPEDTAVYYWNSGRTYRRLGDYWGQGTQVTVSS | high polyreactivity
26 | QVQLVESGGGLVQAGGSLRLSCAASGSIFGPNAMGWYRQAPGKERELVAAITSGSSTKYADSVKGRFTISRDNAKNPVYLQMNSLKPEDTAVYYCAASGTTTWKYGYWGQGTQVTVSS | low polyreactivity
27 | QVQLGESGGGLVQAGGSLRLSCAASGSTFERYSMGWYRQAPGKERELDAAINWSGGGTYYADSVKGRFTISRDNAKNTVYLQMNSLKPEDTAVYYCAADSGNVVFSLWWYEYYYWGQGTQVTVSS | low polyreactivity
28 | QVQLVESGGGLVQAGGSLRLSCAASGSTFVDYAMGWYRQAPGKERELVAAINRSGGRTYYADSVKGRFTISRDNAKNTVYLQMNSLKPEDTAVYYCAAKNPQPDEHGYWGQGTQVTVSS | high polyreactivity
29 | QVQLVESGGGLVQAGGSLRLSCAASGRIFGYNAMGWYRQAPGKERELVAAIDYTGGSTYYADSVKGRFTISRDNAKNTVYLQMNSLKPEDTAVYYCAKDRTTPWEEDDYWGQGTQVTVSS | low polyreactivity
30 | QVQLVESGGGLVQAGGSLRLSCAASGYIFDVYDMGWYRQAPGKERELVAAITDYADSVKGRFTISRDNAKNTVYLQMNSLKPEDTAVYYCAADTDVLKGTTGFEYWGQGTQVTVSS | low polyreactivity
31 | QVQLVESGGGLVQAGGSLRLSCAASGIIFDYYAMGWYRQAPGKERELVATITSGGSTNYADSVKGRFTISRDNAKNTVYLQMNSLKPEDTAVYYCAKEYFATWLIPKYDYWGQGTQVTVSS | low polyreactivity
32 | QVQLVESGGGLVQAGGSLRLSCAASGSTFWFYAMGWYRQAPGKERELVAVISNSGSTYYADSVKGRFTISRDNAKNTVYLQMNSLKPEDTAVYYCNKDGGGDSYWYDYWGQGTLVTVSS | low polyreactivity
33 | QVQLVESGGGLVQAGGSLRLTCAASGSTFSGYAMGWYRQAPGKERELVATISGGGSTYYADSVKGRFTISRDNAKNTVYLQMNILKPEDTAVYYCNAQGYGIFTSSLDYWGQGTQVTVSS | low polyreactivity
34 | QVQLVESGGGLVQAGGSLRLTCAASGSTFPSYAMGWYRQAPGKERELVAAINSGGGTNYADSVKGRFTISRDNAKNTVYLHMNSLKPEDTAVYYCAKSRYDYTKTEGGYWGQGSQVTVSS | low polyreactivity
35 | QVQLVESGGGIVQAGGSLRLSCAASGSIFQWYAMGWYRQAPGKERELVAAISFNGGITYYADSVKGRFTISRDNANNTVYLQMNSLKPEDTAVYYCATEYRSASGDYDYWGQGTQVTVSS | low polyreactivity
36 | QVQLVESGVGLVQARGSLRLSCAASGITFRRYAMGWYRQPPGKERELVAAITSSGGSTYYADSVKGRFTIPRDNAKNTVYLQMNSLKPEDTAVYYCAAAFFSQYYLYDYWGQGTQVTVSS | high polyreactivity
37 | QVQLVESGGGLVQAGGSLRLSCADSGSIFEFNTMGWYRQAPGKERELVAAISSADTTNYADSVKGRFTISRDNAKNTVYLQMNSLKPEDTAVYYCNKELHLSATLRVLGFDYWGQGTQVTVSS | low polyreactivity
38 | QVQLVESGGGLVQAGGSLRLSCGASGIIFFNNVMGWYRHAPGKERELVAAITFSGSSTYYADSVKGRFTISRDNAKNTVYLQMNSMKPEDTAVYYCAAKYYGVLYTVPGDDYWGQGTLVTVSS | low polyreactivity
39 | QVHLVESGGGLLQAGGSLRLSCAASGFTFFVNAMGWYRQAPGKERELVAAISIRSGGRTYYADSVKGRFTISRENAKNTVYLQMNSLKPEDTAVYYCAAESSRPEHTFHYYRFLFDYWGQGTQVTVSS | low polyreactivity
40 | QVQLLESGGGLVQAGGSLRLSCAASGITLYRYTMGWYRQAPGKEREFVAAISRSGGSTYYADSVKGRFTLSRDNAKNTVYFQMKSLKPDDTAVYYCAAPWYEKTTRPYGSWGQGTQVTVSS | high polyreactivity
41 | QVQLVESGGGLVQAGGSLRLSCAASGRTFVYNAMGWYRQAPGKERELVAAIDGGGDRTYYADSVKGRFTISRDNAKNTVYLQMNSLKPEDTAVYYCNARWQEPLKYDYWGQGTQVTVSS | low polyreactivity
42 | QDQHVESGGGLVQEGGSLRLSCAASGSTFWPYAMGWSRQAPGKERELVARINSGGNTNYADSVKGLFTISRDNAKNTVYLQMNSLKPEDTAVYYCAVRSLYEPRVYYRCVVGDGNYWGQGTQVTVSS | low polyreactivity
43 | QVQLVQSGGGLVQAGGSLRLSCAPTGVIFRHNARGWYRQSPGKERELVAAISRSGGNTYYADSVKGRFTISRDNAKQTDYLQRNSLKPEDTAVYYSNKIEYDSWADHVYWGQGTQVTVSS | low polyreactivity
